Experimental data published in patent US20250084398A1, “SYSTEMS FOR MODULATING DRUG METABOLISM BY CELLS, METHODS AND COMPOSITIONS THEREOF” (priority 2021, published 2025).

Assays:
[1] = mice, cited from earlier work
GUS enzyme [2] = assay: GUS assay: GUS specific activity in bacterial cultures, PNPG substrate, absorbance at 410 nm; assay type: cell-based, E. coli
Experimental: The GUS activity is performed as previously described elsewhere, including all required assay controls. Briefly, bacterial cultures grow to reach OD600 of 0.6. Once reached the targeted growth phase, the culture is transduced with the GusR_K125A-expressing vector. One hour later, the bacterial cultures are added to the assay reaction, along with the substrate (PNPG) and the assay buffer. The assay reaction is incubated at 37° C. for 6 hours and the activity of the GUS operon is monitored by the presence of the hydrolysis product (PNP) by measuring the absorbance at 410 nm. The arbitrary units of the GUS operon specific activity are calculated as follows: […]
Inhibition of the GUS activity using the GusR_K125A mutant was next evaluated by the inventors. More specifically, two E. coli bacterial hosts were used: BW25113 and MG1655. A plasmid that expresses the mutant repressor K125A was introduced into each of these hosts (BW25113 K125A and MG1655 K125A). The activity of the GUS operon was determined in the absence (−) or presence (+) of the GUS operon inducer PNPG. The specific units were calculated as described above. As shown by FIG. 4, GUS activity is inhibited in the presence of the dominant negative mutant repressor K125A in two bacterial hosts.

[3] = system: E. coli K-12 BW25113 and E. coli K12 MG1655; assay: TFU assay: transduction efficiency of phage-based particles into bacterial hosts; assay type: cell-based; conditions: 1 hr incubation with lysate
Experimental: FIG. 6. Transduction of the modulatory component into different microbiome isolates Transductions (TFU/ml) of the DOIN vector into microbiome isolates was determined using the TFU assay, as described previously. Test bacteria culture (MG1655 (grey bars), BW25113 (white bars)) was grown to reach mid-exponential growth phase and incubated for 1 hr with a lysate of transducing particles (modified bacteriophages) containing the DOIN vector expressing GusR K125A_CRISPR, used as the modulatory component. Ten-fold serial dilutions were plated in duplicates on selective plates, which only bacteria that were transduced were able to grow on. Dashed grey horizontal line indicates the assay limit of detection. Data represent at least two independent experiments.
The lysate titer is determined using the transducing forming units (TFU) assay as previously described elsewhere.
The produced lysates are used to transduce each of the abovementioned bacterial hosts, and the transduction efficiencies for each strain is determined by the TFU assay.
More specifically, phage-based particle lysate was prepared as described above. The transduction efficiency of the particles against the indicated bacterial host above was determined using the TFU assay, as described previously, and presented in Table 2. The tail used for transduction is TC1 (TC1 as denoted by SEQ ID NO: 4).

HL29 (ATCC HTB-38) cells = assay: Viability of human colorectal adenocarcinoma cells incubated 48 hr with SN38G-treated bacterial lysates (XTT viability assay); assay type: cell-based
Experimental: Two BW25113 bacterial cultures were used: Vector bacteria expressing empty vector, and K125A bacteria containing the DOIN vector expressing GusR mutant repressor K125A. The cultures were incubated with PNPG to induce the GUS operon and were then incubated with the indicated SN-38G (SantaCruz, 212931A) concentrations, followed by lysis of the bacteria. HL29 (ATCC® HTB-38™) cells were maintained according to the manufacture instructions and incubated for 48 hr with the different bacterial extractions. The viability of the cells, incubated with the bacterial lysates, were determined using the XTT viability assay, in three independent biological repeats using four replicates.
GusR mutant K125A reduces the cytotoxicity of SN38 by inhibiting the metabolism of SN38G by the bacterial GUS, in an enzyme concentration-dependent manner. The study was performed as described in FIGURE, with the following modifications: The cultures were incubated with PNPG to induce the GUS operon, diluted as indicated, followed by incubation with 1 μM of SN-38G, and subsequently, lysis of the bacteria. The viability of the cells was determined as above.
Bacteria (WT and GUS-inhibitor producing bacteria) are grown and induced using PNPG as described above. Following induction, the bacteria are lysed, and extracts are incubated with SN-38G or PNPG. At the end of the incubation period, the PNPG-incubated bacterial extracts are taken to determine the activity of the GUS. In parallel, the SN-38G-incubated bacterial extracts are added to HT29 cell culture to determine cytotoxicity and CC50.
The rate of SN38G conversion to SN38 by the bacterial GUS in the samples is dependent on the reaction conditions (e.g., GUS enzyme activity, substrate concentration etc.), thus the resulting samples contained different concentrations of SN38. The samples were then incubated with HL29, human colorectal adenocarcinoma cell-line, and the viability of the cells was determined. Different concentrations of SN38G and bacteria were examined to evaluate their effect on the cytotoxicity of SN38. […]

GUS enzyme [4] = conditions: induced with 1 mM PNPG; cited from earlier work
[5] = replacement of carboxylate-contacting residue; cited from earlier work

## CCc1c2c(nc3ccc(O)cc13)-c1cc3c(c(=O)n1C2)COC(=O)[C@]3(O)CC [SN38]
[1]; after administration of Irinotecan 80 mg/kg
  time to peak concentration of SN38: 2 h
[1]; intestine, Irinotecan 80 mg/kg
  peak concentration of SN38: around 1 μg/gr tissue weight

B1: K125A GusR (protein)
chain: MMDNMQTEAQPTRTRILNAAREIFSENGFHSASMKAICKSCAISPGTLYHHFISKEALIQAIILQDQERALARFREPIEGIHFVDYMVESIVSLTHEAFGQRALVVEIMAEGMRNPQVAAMLKNAHMTITEFVAQRMRDAQQKGEISPDINTAMTSRLLLDLTYGVLADIEAEDLAREASFAQGLRAMIGGILTAS
GUS enzyme [2]; samples of the cytotoxicity study (BW25113)
  GUS specific activity lower than in empty vector-expressing bacteria: around 10 fold
GUS enzyme [2]; two bacterial hosts, BW25113 and MG1655, absence or presence of PNPG
  GUS activity (specific activity, FIG. 4): inhibited
[3]
  Transduction into microbiome isolates (FIG. 6): successful transduction
HL29 (ATCC HTB-38) cells; SN38G 0.1 μM, BW25113 bacteria
  rescue of cells from the toxic effect of SN38 (FIG. 9): completely rescued
HL29 (ATCC HTB-38) cells; SN38G 1 μM, BW25113 bacteria, un-diluted
  cells rescued (viability, FIG. 9): 60%
HL29 (ATCC HTB-38) cells; SN38G 1 μM, bacteria 6-fold diluted
  cells rescued from SN38 toxicity (FIG. 10): ~100%
GUS enzyme [4]
  GUS activity of bacterial cells containing an expression plasmid: no GUS activity
[5]
  affinity to the GUS ligand: significantly lower affinity

B2: Y164F GusR (protein)
chain: MMDNMQTEAQPTRTRILNAAREIFSENGFHSASMKAICKSCAISPGTLYHHFISKEALIQAIILQDQERALARFREPIEGIHFVDYMVESIVSLTHEAFGQRALVVEIMAEGMRNPQVAAMLKNKHMTITEFVAQRMRDAQQKGEISPDINTAMTSRLLLDLTFGVLADIEAEDLAREASFAQGLRAMIGGILTAS
GUS enzyme [2]; BW25113 bacteria
  reduction of GUS activity (FIG. 7): 34 fold
GUS enzyme [2]; MG1655 bacteria
  reduction of GUS activity (FIG. 7): ~1.5 fold
